In patent US10155025B2, “Method for inhibiting or reducing transplant rejection by adminstration of interleukin-34” (INSERM (INSTITUT NATIONAL DE LA SANTÉ ET DE LA RECHERCHE …, priority 2014, dated 2018):

Test system: CD4+CD25- T cells stimulated with allogeneic pDCs
Assay: MLR: suppression of CFSE-labelled CD4+CD25- T cell proliferation in response to allogeneic pDCs
Type: cell-based, rat
Conditions: dose dependent, 0.1 to 2 μg/ml, 6 days of culture
Method: FIG. 3: Detection of IL-34 using an AAV-IL-34 and inhibition of allo-T cell responses. A. Supernatants of AAV-IL-34 or AAV-GFP-transduced cells were tested for suppression of CD4^+CD25^− T cell proliferation in response to allogeneic pDCs and analysed by flow cytometry for CFSE dilution after 5 days of culture. CD8^+ Tregs were used as positive control of suppression. n=3 in duplicates; Results are expressed as mean±SEM of normalized percentage of proliferation vs. proliferation in the absence of CD8^+ Tregs (100%). […] B. Serial dilution of sera from AAV-IL-34 or AAV-GFP-treated rats or naive animals were tested for suppression of CD4^+CD25^− T cell proliferation in response to allogeneic pDCs and analysed by flow cytometry for CFSE dilution after 5 days of culture. CD8^+ Tregs were used as positive control of suppression. n=3 in duplicates; Results are expressed as mean±SEM of normalized percentage of proliferation vs. proliferation in the absence of CD8^+ Tregs (100%). *, p<0.01; **, p<0.001; ***, p<0.0001 vs. sera from naïve animals.
FIG. 6: M-CSF mediated dose dependent suppression of anti-donor effector CD4^÷CD25^− T cells responses. (A) FACS Aria-sorted CD8^+CD45RC^low Tregs from spleen of naive or 120 days old AdCD40Ig-treated recipients (n=6) were analysed for M-CSF mRNA expression by quantitative RT-PCR. *p<0.05. […]

B1: M-CSF: M-CSF protein (ab56288, ABCAM), macrophage colony stimulating factor (protein, UniProt Q8JZQ0 33-566, looked up)
Macrophage colony-stimulating …: EVSEHCSHMIGNGHLQILQQLIDSQMETACLIEYKFVDQEQLDDPVCYLKKAFVLVQVIIEETMRFKDNTPNANATERLQELSMKLNSCFIKDYKEQNEACVQTYKESPLRLLEKIKNFFNETKNFLEKDWNIFSKNCNDSFAKCSSRDVVTKPDCNCLYPKATPSSDLASASPHQPPAPSMAPLADLAWDDSQRTEGSSLLPSDLPLRIEDPGSAKQRPPRSTCQTLESTEQPNHEDPQPHPSAGAPIPGVEDIIESSMGTNWVLEEASGEASEGFLTQERKFSPSNPVGGSIQAETDRPWARSASSPFPKLTEDQQPTNITDTPLTEVNPMRPTGQTLNNTPEKTDGSSTLREDQQEPRSPHFATLNPQRVGNSATPYAKLLPPKSHSWGIVLPLGELEGKKSTRDRRSPAELKGGPASEGAARPVAQSTRDRRSPAELKGGPASEGAARPVARFNSIPLTDTGSSIQDPQTSAFVFWVLGIILVLLAVGGLLFYSWKRRSHRDPRTLDSSVGRPEGSSLAQDEDRQVELPV
suppression of CD4+CD25- T cells proliferation: up to 93.5%
